In patent US20220089574A1, “CXCR4 gamete molecular structure and method thereof” (priority 2020, published 2022):
Square brackets hold non-standard residues; d marks the D form. Side chains are listed from the residue outwards. Peptide text beside a SMILES is read from it. * marks the point of attachment. DOTA = O=C(O)CN1CCN(CC(=O)O)CCN(CC(=O)*)CCN(CC(=O)O)CC1; dTyr(3-I) = N[C@H](Cc1ccc(O)c(I)c1)C(=O)O; 2Nal = N[C@@H](Cc1ccc2ccccc2c1)C(=O)O; dNMeOrn = CN[C@H](CCCN)C(=O)O; 4Amb = NCc1ccc(C(=O)O)cc1

Test: in vivo
Design: species or system SCID mice
Conditions: SCID, mouse, iv, total radioactivity, accumulation in the tumor
Method: Embodiment 3: Radionuclide Labeled D-L2(-B)-L1-A is Used for Animal In Vivo imaging PC-3 human […] adenocarcinoma cells were inoculated into the forelimbs of SCID mice at 4×10^6, and about 3 weeks after inoculation, the radionuclide In-111 labeled D-L2(-B)-L1-A was used to adjust with injection water, and 469-527 μCi of radioactive drugs were intravenously injected into the tail vein, and nano SPECT/CT imaging was performed after administration at 1, 4, 24, 48, 72, and 96 hours, respectively. Nano SPECT/CT was used to track the distribution of radiopharmaceuticals in the animal body at each of the time points after administration, and analysis software was used to enter the image into the semi-definite image to obtain the SPECT value from the test substance with known activity at each of the time points. The linear ratio formula was derived between the SPECT calculated value and the actual activity, and the SPECT calculated value was then used at each target organ circled area to obtain the live/volume of each target organ with interpolation or extrapolation linear formula.
For performing the calculation we assume that every 1 mL of injection dosage is 1 g, and the circled area in the mouse body is 1 g per 1 cm^3. Furthermore, since the activity volume of the administered injection and the weight of the experimental mouse are known, each gram of In-111-D-L2(-B)-L1-A's biological distribution ratio (% ID/g) in each organ can be deduced, and will focus on organ tumor, liver, kidney and muscle into the distribution comparison and obtain ratio, as shown in FIG. 10.

Cc1ccc(CCCC(=O)NCCCC[C@H](NC(=O)CN2CCN(CC(=O)O)CCN(CC(=O)O)CCN(CC(=O)O)CC2)C(=O)NCc2ccc(C(=O)NCCC[C@@H]3C(=O)N[C@@H](CCCNC(=N)N)C(=O)N[C@@H](Cc4ccc5ccccc5c4)C(=O)NCC(=O)N[C@H](Cc4ccc(O)c(I)c4)C(=O)N3C)cc2)cc1 (111In complex, metal not drawn) [I-01(-I-01)-I-01] showed a tissue uptake at 1 h of 5.47 %ID/g and a tissue uptake at 24 h of over 1 %ID/g.
Cc1ccc(CCCC(=O)NCCCC[C@H](NC(=O)CN2CCN(CC(=O)O)CCN(CC(=O)O)CCN(CC(=O)O)CC2)C(=O)NCCCCCC(=O)NCCC[C@@H]2C(=O)N[C@@H](CCCNC(=N)N)C(=O)N[C@@H](Cc3ccc4ccccc4c3)C(=O)NCC(=O)N[C@H](Cc3ccc(O)c(I)c3)C(=O)N2C)cc1 (111In complex, metal not drawn) [I-01(-I-01)-I-17] showed a tissue uptake at 1 h of 7.87 %ID/g and a tissue uptake at 24 h of over 1 %ID/g.
In the case of CN1C(=O)[C@@H](Cc2ccc(O)c(I)c2)NC(=O)CNC(=O)[C@H](Cc2ccc3ccccc3c2)NC(=O)[C@H](CCCNC(=N)N)NC(=O)[C@H]1CCCNC(=O)c1ccc(CNC(=O)CN2CCN(CC(=O)O)CCN(CC(=O)O)CCN(CC(=O)O)CC2)cc1 [In-111-pentixather, metal not drawn] (cyclo([dTyr(3-I)][dNMeOrn]([4Amb-DOTA])R[2Nal]G)), the tissue uptake at 1 h is reported as 3.24 %ID/g, the tissue uptake at 4 h is reported as 1.54 %ID/g and the tissue uptake at 48 h is reported as 0.5 %ID/g. The tissue uptake at 72 h was 0.24 %ID/g and the tissue uptake at 96 h was 0.25 %ID/g.
